Experimental data: patent US20090062190A1 (published 2009)

Molecular target: LITAF (LPS-induced TNF-α factor), full length
Assay: cell-based or functional assay

LITAF (LPS-induced TNF-α factor), full length, sequence (chain, as listed by the source limits assumed): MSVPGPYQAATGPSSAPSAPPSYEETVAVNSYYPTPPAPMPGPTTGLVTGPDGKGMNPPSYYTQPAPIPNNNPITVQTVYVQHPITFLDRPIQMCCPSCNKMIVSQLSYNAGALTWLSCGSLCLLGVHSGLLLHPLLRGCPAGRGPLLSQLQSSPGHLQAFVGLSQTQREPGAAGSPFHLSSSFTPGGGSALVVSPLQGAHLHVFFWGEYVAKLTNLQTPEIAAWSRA

TNF-promoter activity (luciferase), U2OS cells, co-transfection versus LITAF alone: 1.5 fold | TNF-α in supernatants of transfected THP-1 cells (ELISA), versus LITAF alone: 1.8 fold | cytokine antibody array, 'W-10' (probably IL-10), THP-1 cells co-transfected with LITAF and STAT6(B): 10 fold | cytokine antibody array, GRO, THP-1 cells co-transfected with LITAF and STAT6(B): 2.1 fold | cytokine antibody array, IFN-γ, THP-1 cells co-transfected with LITAF and STAT6(B): 6.2 fold | cytokine antibody array, IL-1α, THP-1 cells co-transfected with LITAF and STAT6(B): 3 fold | cytokine antibody array, MCP-2, THP-1 cells co-transfected with LITAF and STAT6(B): 8.5 fold | cytokine antibody array, RANTES, THP-1 cells co-transfected with LITAF and STAT6(B): 3.2 fold | cytokine antibody array, TNF-α, THP-1 cells co-transfected with LITAF and STAT6(B): 4 fold
B1: STAT6(B) (Signal transducer and activator of transcription), full length, aa 1-404 (other)
chain: MARRNPSPPLQRLRDWGHHHCPCHPGPGWLSTDGEHPAILCQRPVHSLTGGPNPGSCSAQKSLSQEAQGGGFPEPLQAWAGTGCSDSFLSPTSSLLPAALLSLPVCHPDVTPYFIAVLLLLPHDPCPPFPPPFLPNPRALHGCLFLLTTAEQMGKDGRGYVPATIKMTVERGVWWYGQWVGQGLVVLICRKEGWHQPLVSHMYLLPSSRDQPLPTPELQMPTMVPSYDLGMAPDSSMSMQLGPDMVPQVYPPHSHSIPPYQGLSPEESVNVLSAFQEPHLQMPPSLGQMSLSFDQPHPQGLLPCQPQEHAVSSPDPLLCSDVTTVEDSCLSQPVTAFPQGTWIGEDIFPPLLPPTEQDLTKLLLEGQGESGGGSLGAQPLLQPSHYGQSGISMSHMDLRANPSW
